Measurements as given in US20140249076A1 (AstraZeneca / MedImmune, published 2014).
Numbered stars: 1 amine (or outer) side, 2 acyl side, 3 side chain; on linkers, the order of the positions; unused ones are H or OH. Side chains are listed from the residue outwards. Ends that are not written are not given here. γGlu = O=C(O)[C@H](CCC(=O)[*:2])N[*:1]

B1: Cmpd 17 (peptide)
peptide: KCNTATCALQRLAQELHRLQTYPRTNVGSNTY-NH2
modifications: ends and bridges not checked
notes: Parent peptide of the fatty acid acylated compounds
B2: Cmpd 195 (Kε-(γ-Glu(Nα-C16-Chain))-Cmpd 17) (peptide)
peptide: K([γGlu-C16‑Chain])KCNTATCALQRLAQELHRLQTYPRTNVGSNTY-NH2
modifications: ends and bridges not checked
notes: The description is read as an extra acylated Lys placed before the N-terminus of Cmpd 17

The binders below were run against T1, amylin receptor (RNA membranes) (assay: displacement of 125I-rat amylin from RNA membranes).
T1 construct: Membrane preparation
Excerpt: Dried glass fiber plates were combined with scintillant and counted on a multi-well Perkin Elmer scintillation counter, as well known in the art.

Binder	IC50 [nM]
B1	0.028
K([γGlu-C16‑Chain])CNTATCALQRLAQELHRLQTYPRTNVGSNTY-NH2 (ends and bridges not checked, Lys 1 is already present in Cmpd 17) [Cmpd 192 ([K^1ε-(γ-Glu(Nα-C16-Chain))]-Cmpd 17)]	0.518
B2	0.137

The binders below were run against T2, CGRP receptor (SK-N-MC cell membranes) (UniProt Q16602 23-461; O60894 27-148) (assay: displacement of 125I-human CGRP from SK-N-MC cell membranes).
T2 construct: whole, on cells
T2 sequence (Q16602 23-461, chain 1 of 2): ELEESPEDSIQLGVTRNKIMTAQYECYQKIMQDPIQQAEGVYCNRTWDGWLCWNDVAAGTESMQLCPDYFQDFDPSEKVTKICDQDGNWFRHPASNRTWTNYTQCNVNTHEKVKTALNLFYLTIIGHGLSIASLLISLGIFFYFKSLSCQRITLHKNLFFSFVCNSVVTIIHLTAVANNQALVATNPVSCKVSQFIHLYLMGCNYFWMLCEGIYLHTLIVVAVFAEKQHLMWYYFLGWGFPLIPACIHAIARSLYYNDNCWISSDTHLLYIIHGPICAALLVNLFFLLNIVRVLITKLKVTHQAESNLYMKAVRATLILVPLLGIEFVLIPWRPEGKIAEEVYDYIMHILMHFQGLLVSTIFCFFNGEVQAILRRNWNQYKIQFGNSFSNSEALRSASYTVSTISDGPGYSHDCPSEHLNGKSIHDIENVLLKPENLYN
T2 sequence (O60894 27-148, chain 2 of 2): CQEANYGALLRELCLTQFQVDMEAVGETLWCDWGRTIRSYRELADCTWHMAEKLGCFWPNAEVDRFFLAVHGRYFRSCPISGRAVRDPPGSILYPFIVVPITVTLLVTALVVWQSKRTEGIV
Excerpt: Dried glass fiber plates were combined with scintillant and counted on a multiwell Perkin Elmer scintillation counter.

Binder	IC50 [nM]
B1	1.26
K([γGlu-C16‑Chain])CNTATCALQRLAQELHRLQTYPRTNVGSNTY-NH2 (ends and bridges not checked, Lys 1 is already present in Cmpd 17) [Cmpd 192 ([K^1ε-(γ-Glu(Nα-C16-Chain))]-Cmpd 17)]	4.45
B2	0.603
